Experimental findings from IntAct's records for PubMed 35512704 are described below.

B1: Mothers against decapentaplegic homolog 4 (Homo sapiens), Q13485 (parent)
chain: MDNMSITNTPTSNDACLSIVHSLMCHRQGGESETFAKRAIESLVKKLKEKKDELDSLITAITTNGAHPSKCVTIQRTLDGRLQVAGRKGFPHVIYARLWRWPDLHKNELKHVKYCQYAFDLKCDSVCVNPYHYERVVSPGIDLSGLTLQSNAPSSMMVKDEYVHDFEGQPSLSTEGHSIQTIQHPPSNRASTETYSTPALLAPSESNATSTANFPNIPVASTSQPASILGGSHSEGLLQIASGPQPGQQQNGFTGQPATYHHNSTTTWTGSRTAPYTPNLPHHQNGHLQHHPPMPPHPGHYWPVHNELAFQPPISNHPAPEYWCSIAYFEMDVQVGETFKVPSSCPIVTVDGYVDPSGGDRFCLGQLSNVHRTEAIERARLHIGKGVQLECKGEGDVWVRCLSDHAVFVQSYYLDREAGRAPGDAVHKIYPSAYIKVFDLRQCHRQMQQQAATAQAAAAAQAAAVAGNIPGPGSVGGIAPAISLSAAAGIGVDDLRRLCILRMSFVKGWGPDYPRQSIKETPCWIEIHLHRALQLLDEVLHTMPIADPQPLD
partner: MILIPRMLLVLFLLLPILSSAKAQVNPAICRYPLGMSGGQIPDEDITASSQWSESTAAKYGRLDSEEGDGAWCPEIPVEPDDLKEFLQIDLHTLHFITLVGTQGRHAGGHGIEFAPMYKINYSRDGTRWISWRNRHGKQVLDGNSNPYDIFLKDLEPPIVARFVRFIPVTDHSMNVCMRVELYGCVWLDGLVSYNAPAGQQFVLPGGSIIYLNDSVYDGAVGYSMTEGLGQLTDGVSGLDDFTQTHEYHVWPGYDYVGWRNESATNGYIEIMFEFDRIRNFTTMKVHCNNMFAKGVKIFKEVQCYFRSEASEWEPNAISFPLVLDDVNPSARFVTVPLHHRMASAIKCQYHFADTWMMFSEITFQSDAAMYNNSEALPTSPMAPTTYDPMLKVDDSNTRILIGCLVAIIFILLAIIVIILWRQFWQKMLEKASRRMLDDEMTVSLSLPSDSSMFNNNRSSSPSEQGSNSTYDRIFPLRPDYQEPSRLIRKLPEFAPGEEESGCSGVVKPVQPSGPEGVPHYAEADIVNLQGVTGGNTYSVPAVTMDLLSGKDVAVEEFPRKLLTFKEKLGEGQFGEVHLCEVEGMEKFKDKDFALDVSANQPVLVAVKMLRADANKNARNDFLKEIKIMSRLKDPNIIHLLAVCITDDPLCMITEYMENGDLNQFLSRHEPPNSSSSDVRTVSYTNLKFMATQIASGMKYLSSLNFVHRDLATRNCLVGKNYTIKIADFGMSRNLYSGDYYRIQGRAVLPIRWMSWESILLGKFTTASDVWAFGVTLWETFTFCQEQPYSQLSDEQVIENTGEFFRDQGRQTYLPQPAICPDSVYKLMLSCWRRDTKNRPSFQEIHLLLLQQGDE
B2: Mothers against decapentaplegic homolog 4 (Homo sapiens), Q13485 (parent)
chain: B1 chain
partner: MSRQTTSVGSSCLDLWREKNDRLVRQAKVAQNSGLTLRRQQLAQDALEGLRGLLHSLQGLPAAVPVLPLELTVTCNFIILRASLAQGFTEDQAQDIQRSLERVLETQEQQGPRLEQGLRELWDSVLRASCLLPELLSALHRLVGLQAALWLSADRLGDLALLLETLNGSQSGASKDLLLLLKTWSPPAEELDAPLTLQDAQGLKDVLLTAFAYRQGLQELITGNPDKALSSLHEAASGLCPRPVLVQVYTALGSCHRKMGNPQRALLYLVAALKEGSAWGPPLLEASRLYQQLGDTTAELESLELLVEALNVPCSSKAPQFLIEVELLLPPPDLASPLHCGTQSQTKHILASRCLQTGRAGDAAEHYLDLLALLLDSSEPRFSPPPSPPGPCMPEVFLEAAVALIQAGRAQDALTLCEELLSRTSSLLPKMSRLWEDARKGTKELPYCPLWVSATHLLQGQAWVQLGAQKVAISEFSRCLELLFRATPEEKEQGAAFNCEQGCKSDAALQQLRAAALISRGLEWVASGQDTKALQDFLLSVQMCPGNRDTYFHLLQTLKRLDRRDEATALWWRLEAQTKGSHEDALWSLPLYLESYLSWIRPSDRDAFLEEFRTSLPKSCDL
B3: Mothers against decapentaplegic homolog 4 (Homo sapiens), Q13485 (parent)
chain: B1 chain
partner: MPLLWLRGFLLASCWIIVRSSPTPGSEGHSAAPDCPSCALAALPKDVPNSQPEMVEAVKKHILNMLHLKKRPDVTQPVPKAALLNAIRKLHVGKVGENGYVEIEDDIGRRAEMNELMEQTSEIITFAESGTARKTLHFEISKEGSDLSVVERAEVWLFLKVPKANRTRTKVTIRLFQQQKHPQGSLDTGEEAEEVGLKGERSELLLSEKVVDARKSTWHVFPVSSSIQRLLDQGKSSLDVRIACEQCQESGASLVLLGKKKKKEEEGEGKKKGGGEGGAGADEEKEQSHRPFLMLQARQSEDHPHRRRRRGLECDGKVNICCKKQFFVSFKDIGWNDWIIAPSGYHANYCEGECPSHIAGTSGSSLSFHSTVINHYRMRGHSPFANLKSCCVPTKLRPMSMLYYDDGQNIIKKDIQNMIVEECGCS

Variants of B1 are the subject of the first assay. The following applies: with ddr2_human DDR2, Q16832.
For the variant G386D, the “effect of a mutation on the interaction” value was “with no effect”.

Variants of B1 are the subject of another assay. The note with it: with ddr2_human DDR2, Q16832. This is another data set of the same source.
As to R361C, the “effect of a mutation on the interaction” value is reported as “with no effect”.

The next assay covers variants of B1. The following applies: with ddr2_human DDR2, Q16832. This is another data set of the same source.
Turning to R361H, the “effect of a mutation on the interaction” value was “with no effect”.

The variants in a further assay derive from B1. The note with it: with ddr2_human DDR2, Q16832. This is another data set of the same source.
As to D351H, the “effect of a mutation on the interaction” value was “with no effect”.

In another assay the parent is B2. The following applies: with fancg_human FANCG.
Consider D351H, for which the “effect of a mutation on the interaction” value is recorded as “with no effect”.

The next assay covers variants of B2. The following applies: with fancg_human FANCG. The source holds these as a separate data set.
For the variant G386D, the “effect of a mutation on the interaction” value is on record as “with no effect”.

The variants in another assay derive from B2. The following applies: with fancg_human FANCG. The source holds these as a separate data set.
As to R361C, the “effect of a mutation on the interaction” value is “with no effect”.

In the next assay the parent is B2. The following applies: with fancg_human FANCG. This is another data set of the same source.
As for R361H, the “effect of a mutation on the interaction” value is listed as “with no effect”.

The next assay covers variants of B3. The note with it: with inhba_human INHBA.
Regarding G386D, the “effect of a mutation on the interaction” value was “with no effect”.

Variants of B3 are the subject of the next assay. The note with it: with inhba_human INHBA. This is another data set of the same source.
As to D351H, the “effect of a mutation on the interaction” value was “with no effect”.

In a further assay the parent is B3. The note with it: with inhba_human INHBA. The source holds these as a separate data set.
With R361C, the “effect of a mutation on the interaction” value is listed as “with no effect”.

The variants in the next assay derive from B3. The note with it: with inhba_human INHBA. The source holds these as a separate data set.
Take R361H: the “effect of a mutation on the interaction” value is “with no effect”.
